For data set [1], the system named is HeLa Kyoto. Nature of the data set: solubility in G1/S (NP-40 vs SDS abundance) (log2 ratio); higher = more soluble. The following applies: cell cycle stage: G1/S.
Data set [2] has as its system HeLa Kyoto. Nature of the data set: thermal stability score vs G1/S (z-score of summed log2 fold changes over temperatures); higher = more thermally stable than in G1/S.
Data set [3] has as its system HeLa Kyoto. Nature of the data set: solubility change mitosis vs G1/S (difference of NP-40 vs SDS log2 ratios) (log2 ratio difference); higher = more soluble in mitosis.
Data set [4] has as its system HeLa Kyoto. Nature of the data set: melting temperature (median over replicates), in situ; higher = more thermally stable.
Where [5] appears, read: cell cycle stage: early G1 (4.5 h after nocodazole release).
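Wherever melting temperature (median over replicates), in situ is given: HeLa Kyoto cells synchronized by double thymidine or nocodazole block, proteins quantified by TMT10plex mass spectrometry, three independent biological replicates.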
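Wherever solubility change mitosis vs G1/S (difference of NP-40 vs SDS log2 ratios) is given: synchronized HeLa Kyoto cells (double thymidine block for G1/S, nocodazole release for mitosis), protein amounts in NP-40 versus SDS lysates quantified by mass spectrometry, three biological replicates.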
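Wherever solubility in G1/S (NP-40 vs SDS abundance) is given: HeLa Kyoto cells arrested at G1/S by double thymidine block, proteins quantified by TMT10plex mass spectrometry in mild NP-40 versus SDS extracts, three biological replicates.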
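Wherever thermal stability score vs G1/S (z-score of summed log2 fold changes over temperatures) is given: synchronized HeLa Kyoto cells, proteins quantified by TMT10plex mass spectrometry, three biological replicates, mitosis taken 0.5 h after nocodazole release, G1/S directly after double thymidine block.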

“MSKSKDDAPHELESQFILRLPPEYASTVRRAVQSGHVNLKDRLTIELHPDGRHGIVRVDRVPLASKLVDLPCVMESLKTIDKKTFYKTADICQMLVSTVDGDLYPPVEEPVASTDPKASKKKDKDKEKKFIWNHGITLPLKNVRKRRFRKTAKKKYIESPDVEKEVKRLLSTDAEAVSTRWEIIAEDETKEAENQGLDISSPGMSGHRQGHDSLEHDELREIFNDLSSSSEDEDETQHQDEEDINIIDTEEDLERQLQDKLNESDEQHQENEGTNQLVMGIQKQIDNMKGKLQETQDRAKRQEDLIMKVENLALKNRFQAVLDELKQKEDREKEQLSSLQEELESLLEK [TAF7]”: the “solubility in G1/S (log2)” value in data set [1] was 0.55. The thermal stability score in data set [2] (setting [5]) amounted to 1.09; in data set [2] (cell cycle stage: mitosis), 3.64. Moreover, in data set [3], the “solubility change mitosis (log2)” value was 0.081. Also, the results for the melting temperature in data set [4] (cell cycle stage: G1/S) and in data set [4] (cell cycle stage: mitosis) were 52 °C and 51.6 °C, respectively.
Take “MERPQPDSMPQDLSEALKEATKEVHTQAENAEFMRNFQKGQVTRDGFKLVMASLYHIYVALEEEIERNKESPVFAPVYFPEELHRKAALEQDLAFWYGPRWQEVIPYTPAMQRYVKRLHEVGRTEPELLVAHAYTRYLGDLSGGQVLKKIAQKALDLPSSGEGLAFFTFPNIASATKFKQLYRSRMNSLEMTPAVRQRVIEEAKTAFLLNIQLFEELQELLTHDTKDQSPSRAPGLRQRASNKVQDSAPVETPRGKPPLNTRSQAPLLRWVLTLSFLVATVAVGLYAM [HMOX1]”: the “solubility in G1/S (log2)” value in data set [1] was 0.553. Moreover, the thermal stability score came out at 0.266 in data set [2] (setting [5]) and 0.9 in data set [2] (cell cycle stage: mitosis). The “solubility change mitosis (log2)” value in data set [3] was -0.0689. Also, the melting temperature in data set [4] (cell cycle stage: G1/S) amounted to 52.6 °C; in data set [4] (cell cycle stage: mitosis) it was 53.9 °C.
Take “MAPWGKRLAGVRGVLLDISGVLYDSGAGGGTAIAGSVEAVARLKRSRLKVRFCTNESQKSRAELVGQLQRLGFDISEQEVTAPAPAACQILKEQGLRPYLLIHDGVRSEFDQIDTSNPNCVVIADAGESFSYQNMNNAFQVLMELEKPVLISLGKGRYYKETSGLMLDVGPYMKALEYACGIKAEVVGKPSPEFFKSALQAIGVEAHQAVMIGDDIVGDVGGAQRCGMRALQVRTGKFRPSDEHHPEVKADGYVDNLAEAVDLLLQHADK [LHPP]”: the “solubility in G1/S (log2)” value in data set [1] turned out to be 0.392. For the same substance, the thermal stability score in data set [2] (setting [5]) is -1.67; in data set [2] (cell cycle stage: mitosis), -2.15. Also, in data set [3], the “solubility change mitosis (log2)” value stood at 0.0085. In addition, the melting temperature in data set [4] (cell cycle stage: G1/S) was 56.5 °C; in data set [4] (cell cycle stage: mitosis), 55.5 °C.
With “MVGREKELSIHFVPGSCRLVEEEVNIPNRRVLVTGATGLLGRAVHKEFQQNNWHAVGCGFRRARPKFEQVNLLDSNAVHHIIHDFQPHVIVHCAAERRPDVVENQPDAASQLNVDASGNLAKEAAAVGAFLIYISSDYVFDGTNPPYREEDIPAPLNLYGKTKLDGEKAVLENNLGAAVLRIPILYGEVEKLEESAVTVMFDKVQFSNKSANMDHWQQRFPTHVKDVATVCRQLAEKRMLDPSIKGTFHWSGNEQMTKYEMACAIADAFNLPSSHLRPITDSPVLGAQRPRNAQLDCSKLETLGIGQRTPFRIGIKESLWPFLIDKRWRQTVFH [MAT2B]”, the “solubility in G1/S (log2)” value in data set [1] turned out to be 0.344. Besides, the thermal stability score was -0.304 in data set [2] (setting [5]) and -1.94 in data set [2] (cell cycle stage: mitosis). Besides, the “solubility change mitosis (log2)” value in data set [3] was -0.0436. Further, the melting temperature in data set [4] (cell cycle stage: G1/S) stood at 55.5 °C; in data set [4] (cell cycle stage: mitosis) it was 56.3 °C.
Consider “MGSRDHLFKVLVVGDAAVGKTSLVQRYSQDSFSKHYKSTVGVDFALKVLQWSDYEIVRLQLWDIAGQERFTSMTRLYYRDASACVIMFDVTNATTFSNSQRWKQDLDSKLTLPNGEPVPCLLLANKCDLSPWAVSRDQIDRFSKENGFTGWTETSVKENKNINEAMRVLIEKMMRNSTEDIMSLSTQGDYINLQTKSSSWSCC [RAB29]”, for which, in data set [1], the “solubility in G1/S (log2)” value is 0.0397. Further, the thermal stability score was -0.342 in data set [2] (setting [5]) and -0.372 in data set [2] (cell cycle stage: mitosis). In addition, the “solubility change mitosis (log2)” value in data set [3] was -0.119. In addition, the melting temperature in data set [4] (cell cycle stage: G1/S) came to 53 °C; in data set [4] (cell cycle stage: mitosis), 52.9 °C.
Take “MAAAAAAGEARRVLVYGGRGALGSRCVQAFRARNWWVASVDVVENEEASASIIVKMTDSFTEQADQVTAEVGKLLGEEKVDAILCVAGGWAGGNAKSKSLFKNCDLMWKQSIWTSTISSHLATKHLKEGGLLTLAGAKAALDGTPGMIGYGMAKGAVHQLCQSLAGKNSGMPPGAAAIAVLPVTLDTPMNRKSMPEADFSSWTPLEFLVETFHDWITGKNRPSSGSLIQVVTTEGRTELTPAYF [QDPR]”: the “solubility in G1/S (log2)” value in data set [1] was determined as 0.236. In addition, the thermal stability score in data set [2] (setting [5]) was -1.31; in data set [2] (cell cycle stage: mitosis), -0.994. Also, the “solubility change mitosis (log2)” value in data set [3] was -0.0466. Further, the melting temperature in data set [4] (cell cycle stage: G1/S) and in data set [4] (cell cycle stage: mitosis) was 55.5 °C each time.
For “MSPARRCRGMRAAVAASVGLSEGPAGSRSGRLFRPPSPAPAAPGARLLRLPGSGAVQAASPERAGWTEALRAAVAELRAGAVVAVPTDTLYGLACAASCSAALRAVYRLKGRSEAKPLAVCLGRVADVYRYCRVRVPEGLLKDLLPGPVTLVMERSEELNKDLNPFTPLVGIRIPDHAFMQDLAQMFEGPLALTSANLSSQASSLNVEEFQDLWPQLSLVIDGGQIGDGQSPECRLGSTVVDLSVPGKFGIIRPGCALESTTAILQQKYGLLPSHASYL [YRDC]”, in data set [1], the “solubility in G1/S (log2)” value was determined as 0.378. Also, the thermal stability score in data set [2] (setting [5]) was found to be 0.325; in data set [2] (cell cycle stage: mitosis) it was 0.668. In data set [3], the “solubility change mitosis (log2)” value is -0.0312. In addition, the melting temperature came to 52.3 °C in data set [4] (cell cycle stage: G1/S) and 52.7 °C in data set [4] (cell cycle stage: mitosis).
In the case of BAZ1A, the “solubility in G1/S (log2)” value in data set [1] was -0.551. In addition, the thermal stability score in data set [2] (setting [5]) worked out at 1.48; in data set [2] (cell cycle stage: mitosis), 3.95. In addition, the “solubility change mitosis (log2)” value in data set [3] came out at 0.356. For the same substance, the figures for the melting temperature in data set [4] (cell cycle stage: G1/S) and in data set [4] (cell cycle stage: mitosis) were 45.9 °C and 49 °C, respectively.

These data come from the supplement of paper PMC5998384.
